Measured values taken from patent US20210107971A1 (UCB, published 2021).

Experiments:
[1] = biological target: T1, monoclonal 6470 rabbit Fab; experiment: competitive SPR (Biacore 3000): 1 µM peptide with 50 nM Fab; competitor immobilised human alpha synuclein fibrils
T1 construct: Fab heavy chain entry carries a C-terminal His tag
Protocol: (§1) Recombinant human alpha synuclein monomer and pre-formed alpha synuclein fibrils were immobilized on a CM5 chip using a Biacore 3000 instrument (GE Healthcare). Following activation of the carboxymethyl dextran surface by injection of 100 μl of a fresh 1:1 (v/v) mixture of 50 mM N-hydroxysuccimide and 200 mM 1-ethyl-3-(3-dimethylaminopropyl)-carbodiimide at a flow rate of 10 μl/min HBS-EP (GE Healthcare) as running buffer, coupling was achieved by injecting 100 μl of monomer and fibrils, at 5 μM in 10 mM acetate pH 5.0, over separate flow cells. A reference flow cell was activated in the same manner and then all flow cell surfaces were deactivated with a 50 μl pulse of 1 M ethanolamine HCl pH 8.5.
(§2) Peptide solutions were prepared in running buffer at 100 μM and a peptide blank control prepared as a 1 in 100 dilution of DMSO in running buffer. […] Sensograms were recorded for each sample by injecting 30 μl of the mixture at 10 μl/min and recording a report point 5 seconds before the end of the injection. […] Control cycles were alternated with peptide cycles.

[2] = biological target: T1, monoclonal 6470 rabbit Fab; experiment: competitive SPR (Biacore 3000): 1 µM peptide with 50 nM Fab; competitor immobilised human alpha synuclein monomer
Protocol: as §1, §2

[3] = biological target: T1, monoclonal 6470 rabbit Fab; experiment: competitive SPR: 6470 Fab pre-incubated with peptide, injected over immobilised human alpha synuclein monomer and fibrils; %inhibition
Protocol: as §1, §2

[4] = biological target: T2, purified recombinant human alpha synuclein fibrils (human, UniProt P37840 1-140); experiment: cell-based or functional assay
[5] = biological target: T3, recombinant full-length human alpha synuclein monomer (human, UniProt P37840 1-140); experiment: SPR, Biacore T200, as in Example 3; full-length IgG4P injected
Protocol: (§3) Interaction kinetics were determined by using surface plasmon resonance technology on a Biacore T200 instrument. Three different ligands including recombinant full-length human alpha synuclein monomer, purified recombinant human alpha synuclein fibrils, and purified recombinant mouse alpha synuclein fibrils, prepared as described herein, were each immobilized on three different flow cells of a CM5 chip surface using amine-coupling chemistry. The three ligands were prepared in 10 mM NaAc, pH 3.5, and immobilized onto separate flow cell surfaces to reach an immobilization level of about 30 response units (RU) for alpha synuclein monomer, about 40 RU for human alpha synuclein fibrils, and about 300 RU for mouse alpha synuclein fibrils respectively, at a flow rate of 10 μI/min. The buffer HBS-EP+(GE healthcare Bio-Sciences AB) was used as running buffer for both ligand immobilization and kinetics assay. […] The surface was regenerated by one injection of 50 mM HCl for 90 s at 10 μI/min, and another injection of 50 mM HCl for 60 s at 10 μI/min. The data were analyzed using the Biacore T200 evaluation software (version 3.0) using the bivalent analyte model with assumed no bulk contribution (RI=0) and global Rmax for IgG format, and 1:1 model with flexible bulk contribution (local RI) and global Rmax.

[6] = biological target: T2, purified recombinant human alpha …; experiment: as above
Protocol: as §3

[7] = biological target: T2, purified recombinant human alpha …; experiment: SPR, Biacore T200, as in Example 3; full-length IgG4P injected; human fibril
[8] = biological target: T3, recombinant full-length human alpha …; experiment: SPR, Biacore T200, as in Example 3; full-length IgG4P injected; human monomer
Protocol: as §3

[9] = biological target: T2, purified recombinant human alpha …; experiment: affinity for human alpha synuclein fibrils, IgG4P; method not given; Table 6 humanization screen, separate from Table 7B
[10] = biological target: purified recombinant human alpha synuclein fibrils (human, UniProt P37840 1-140); experiment: affinity for human alpha synuclein fibrils, IgG4P; method not given
[11] = biological target: T2, purified recombinant human alpha …; experiment: as above; remark: listed apart in the source
[12] = biological target: T2, purified recombinant human alpha …; experiment: cell-based or functional assay; remark: listed apart in the source
[13] = biological target: T3, recombinant full-length human alpha …; experiment: kinetics table of Example 9 (method not named there; same values as Table 7B, SPR)
[14] = biological target: T2, purified recombinant human alpha …; experiment: as above

T1 sequence (V domain, as listed by the source): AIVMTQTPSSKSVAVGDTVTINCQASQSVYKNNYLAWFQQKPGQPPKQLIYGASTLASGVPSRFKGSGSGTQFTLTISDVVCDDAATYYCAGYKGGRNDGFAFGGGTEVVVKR

B1: AS123-132 (peptide)
peptide: Ac-EAYEMPSEEG-NH2
notes: Synthetic peptide of human alpha synuclein
% inhibition [1]: 54% | % inhibition [2]: 37%

Ac-PVDPDNEAYE-NH2 [AS117-126]
binding result [3]: no binding

B2: AS104-113 (peptide)
peptide: Ac-EEGAPQEGIL-NH2
notes: as for B1
binding result [3]: no binding

B3: AS111-120 (peptide)
peptide: Ac-GILEDMPVDP-NH2
notes: as for B1
binding result [3]: no binding

B4: AS125-134 (peptide)
peptide: Ac-YEMPSEEGYQ-NH2
notes: as for B1
% inhibition [1]: 52% | % inhibition [2]: 34%

B5: 6470gL3gH23 IgG4P (antibody, V domains shown)
VH: EVQLLESGGGLVQPGGSLRLSCAVSGIDLSSHDMYWVRQAPGKGLEYIGAIYASGSTYYASWAKGRFTISRDNSKNTVYLQMNSLRAEDTAVYYCARIHYGNSGGLWGQGTLVTVSS
VL: DIQMTQSPSSLSASVGDRVTITCQASQSVYKNNYLAWFQQKPGKAPKQLIYGASTLASGVPSRFSGSGSGTQFTLTISSLQPEDFATYYCAGYKGGRNDGFAFGGGTKVEIKR
notes: Full-length humanized human IgG4P; also called VR6470 gL3
IC50, inhibition of alpha synuclein aggregation induced by fibrils in HEK293F cells expressing alpha synuclein (% pSer129+ cells) [4]: < 5 nM | koff [5]: 0.0242 s⁻¹ | kon [5]: 1.2e+06 M⁻¹ s⁻¹ | koff [6]: 0.000142 s⁻¹ | kon [6]: 855000 M⁻¹ s⁻¹ | Kd [7]: 0.166 nM | Kd [8]: 20.1 nM | Kd [9]: 0.148 nM

B6: 6470gL3gH25 (antibody, V domains shown)
VH: EVQLLESGGGLVQPGGSLRLSCAVSGIDLSSHDMYWVRQAPGKGLEWIGAIYASGSTYYASWAKGRFTISKDSSKNTVYLQMNSLRAEDTAVYYCARIHYGNSGGLWGQGTLVTVSS
VL: DIQMTQSPSSLSASVGDRVTITCQASQSVYKNNYLAWFQQKPGKAPKQLIYGASTLASGVPSRFSGSGSGTQFTLTISSLQPEDFATYYCAGYKGGRNDGFAFGGGTKVEIKR
Kd [10]: 76 nM

B7: VR6470 gL3; gH23-S56N-N102H (antibody, human IgG4 S228P, kappa, V domains shown)
VH: EVQLLESGGGLVQPGGSLRLSCAVSGIDLSSHDMYWVRQAPGKGLEYIGAIYASGNTYYASWAKGRFTISRDNSKNTVYLQMNSLRAEDTAVYYCARIHYGHSGGLWGQGTLVTVSS
VL: DIQMTQSPSSLSASVGDRVTITCQASQSVYKNNYLAWFQQKPGKAPKQLIYGASTLASGVPSRFSGSGSGTQFTLTISSLQPEDFATYYCAGYKGGRNDGFAFGGGTKVEIKR
notes: Full-length humanized human IgG4P
IC50, inhibition of alpha synuclein aggregation induced by fibrils in HEK293F cells expressing alpha synuclein (% pSer129+ cells) [4]: < 5 nM | Kd [5]: 4.62 nM | koff [5]: 0.00445 s⁻¹ | kon [5]: 966000 M⁻¹ s⁻¹ | Kd [6]: 0.068 nM | koff [6]: 7.08e-05 s⁻¹ | kon [6]: 1.04e+06 M⁻¹ s⁻¹

B8: 6470gL6gH36 (antibody, V domains shown)
VH: EVQLLESGGGLVQPGGSLRLSCAVSGIDLSSHDMYWVRQAPGKGLEYIGAIYASGSTYYASWAKGRFTISRDSSKNTLYLQMNSLRAEDTAVYYCARIHYGNSGGLWGQGTLVTVSS
VL: DIQMTQSPSSLSASVGDRVTITCQASQSVYKNNYLAWFQQKPGKAPKSLIYGASTLASGVPSRFSGSGSGTQFTLTISSLQPEDFATYYCAGYKGGRNDGFAFGGGTKVEIKR
Kd [11]: 0.377 nM

B9: 6470gL8gH36 (antibody, V domains shown)
VH: EVQLLESGGGLVQPGGSLRLSCAVSGIDLSSHDMYWVRQAPGKGLEYIGAIYASGSTYYASWAKGRFTISRDSSKNTLYLQMNSLRAEDTAVYYCARIHYGNSGGLWGQGTLVTVSS
VL: DIQMTQSPSSLSASVGDRVTITCQASQSVYKNNYLAWFQQKPGKAPKQLIYGASTLASGVPSRFSGSGSGTDFTLTISSLQPEDFATYYCAGYKGGRNDGFAFGGGTKVEIKR
Kd [11]: 0.198 nM

B10: VR6470 gL3; gH36-S56N-N102H (antibody, human IgG4 S228P, kappa, V domains shown)
VH: EVQLLESGGGLVQPGGSLRLSCAVSGIDLSSHDMYWVRQAPGKGLEYIGAIYASGNTYYASWAKGRFTISRDSSKNTLYLQMNSLRAEDTAVYYCARIHYGHSGGLWGQGTLVTVSS
VL: DIQMTQSPSSLSASVGDRVTITCQASQSVYKNNYLAWFQQKPGKAPKQLIYGASTLASGVPSRFSGSGSGTQFTLTISSLQPEDFATYYCAGYKGGRNDGFAFGGGTKVEIKR
notes: as for B7
IC50, inhibition of alpha synuclein aggregation induced by fibrils in HEK293F cells expressing alpha synuclein (% pSer129+ cells) [4]: < 5 nM | Kd [5]: 4.1 nM | koff [5]: 0.00488 s⁻¹ | kon [5]: 1.19e+06 M⁻¹ s⁻¹ | Kd [6]: 0.059 nM | koff [6]: 7.44e-05 s⁻¹ | kon [6]: 1.25e+06 M⁻¹ s⁻¹

B11: VR6470 gL3-N33R; gH36-S56N-N102H (antibody, human IgG4 S228P, kappa, V domains shown)
VH: EVQLLESGGGLVQPGGSLRLSCAVSGIDLSSHDMYWVRQAPGKGLEYIGAIYASGNTYYASWAKGRFTISRDSSKNTLYLQMNSLRAEDTAVYYCARIHYGHSGGLWGQGTLVTVSS
VL: DIQMTQSPSSLSASVGDRVTITCQASQSVYKNRYLAWFQQKPGKAPKQLIYGASTLASGVPSRFSGSGSGTQFTLTISSLQPEDFATYYCAGYKGGRNDGFAFGGGTKVEIKR
notes: as for B7
IC50, inhibition of alpha synuclein aggregation induced by fibrils in HEK293F cells expressing alpha synuclein (% pSer129+ cells) [4]: < 5 nM | Kd [5]: 1.31 nM | koff [5]: 0.00648 s⁻¹ | kon [5]: 4.97e+06 M⁻¹ s⁻¹ | Kd [6]: 0.053 nM | koff [6]: 0.000126 s⁻¹ | kon [6]: 2.39e+06 M⁻¹ s⁻¹

B12: 6470gL3gH35 (antibody, V domains shown)
VH: EVQLLESGGGLVQPGGSLRLSCAVSGIDLSSHDMYWVRQAPGKGLEYIGAIYASGSTYYASWAKGRFTISKDSSKNTVYLQMNSLRAEDTAVYYCAKIHYGNSGGLWGQGTLVTVSS
VL: DIQMTQSPSSLSASVGDRVTITCQASQSVYKNNYLAWFQQKPGKAPKQLIYGASTLASGVPSRFSGSGSGTQFTLTISSLQPEDFATYYCAGYKGGRNDGFAFGGGTKVEIKR
Kd [11]: 5.28 nM

B13: 6470gL8gH23 (antibody, V domains shown)
VH: EVQLLESGGGLVQPGGSLRLSCAVSGIDLSSHDMYWVRQAPGKGLEYIGAIYASGSTYYASWAKGRFTISRDNSKNTVYLQMNSLRAEDTAVYYCARIHYGNSGGLWGQGTLVTVSS
VL: DIQMTQSPSSLSASVGDRVTITCQASQSVYKNNYLAWFQQKPGKAPKQLIYGASTLASGVPSRFSGSGSGTDFTLTISSLQPEDFATYYCAGYKGGRNDGFAFGGGTKVEIKR
Kd [11]: 0.246 nM

B14: 6470gL3gH36 IgG4P (antibody, V domains shown)
VH: EVQLLESGGGLVQPGGSLRLSCAVSGIDLSSHDMYWVRQAPGKGLEYIGAIYASGSTYYASWAKGRFTISRDSSKNTLYLQMNSLRAEDTAVYYCARIHYGNSGGLWGQGTLVTVSS
VL: DIQMTQSPSSLSASVGDRVTITCQASQSVYKNNYLAWFQQKPGKAPKQLIYGASTLASGVPSRFSGSGSGTQFTLTISSLQPEDFATYYCAGYKGGRNDGFAFGGGTKVEIKR
notes: Full-length humanized human IgG4P; also called VR6470 gL3; VR6470
IC50, inhibition of alpha synuclein aggregation induced by fibrils in HEK293F cells expressing alpha synuclein (% pSer129+ cells) [4]: < 5 nM | IC50, inhibition of alpha synuclein aggregation induced by fibrils on mouse primary neurons (pSer129 alpha synuclein signal) [4]: < 4 nM | IC50 (nM), HEK cell-based aggregation assay [12]: < 5 nM | Kd [5]: 15.1 nM | koff [5]: 0.0174 s⁻¹ | kon [5]: 1.15e+06 M⁻¹ s⁻¹ | Kd [6]: 0.298 nM | koff [6]: 0.000317 s⁻¹ | kon [6]: 1.07e+06 M⁻¹ s⁻¹ | Kd [11]: 0.166 nM | Kd [13]: 15.1 nM | koff [13]: 0.0174 s⁻¹ | kon [13]: 1.15e+06 M⁻¹ s⁻¹ | Kd [14]: 0.298 nM | koff [14]: 0.000317 s⁻¹ | kon [14]: 1.07e+06 M⁻¹ s⁻¹

B15: VR6470 gL3-N33R; gH23-S56N-N102H (antibody, human IgG4 S228P, kappa, V domains shown)
VH: EVQLLESGGGLVQPGGSLRLSCAVSGIDLSSHDMYWVRQAPGKGLEYIGAIYASGNTYYASWAKGRFTISRDNSKNTVYLQMNSLRAEDTAVYYCARIHYGHSGGLWGQGTLVTVSS
VL: DIQMTQSPSSLSASVGDRVTITCQASQSVYKNRYLAWFQQKPGKAPKQLIYGASTLASGVPSRFSGSGSGTQFTLTISSLQPEDFATYYCAGYKGGRNDGFAFGGGTKVEIKR
notes: as for B7
IC50, inhibition of alpha synuclein aggregation induced by fibrils in HEK293F cells expressing alpha synuclein (% pSer129+ cells) [4]: < 5 nM | Kd [5]: 1.71 nM | koff [5]: 0.00594 s⁻¹ | kon [5]: 3.48e+06 M⁻¹ s⁻¹ | Kd [6]: 0.056 nM | koff [6]: 0.000116 s⁻¹ | kon [6]: 2.07e+06 M⁻¹ s⁻¹

Ac-EGYQDYEPEA-OH (peptide, UniProt P37840 131-140, looked up, synthetic 10-mer peptide) [131-140]
binding result [3]: no binding

B16: AS119-128 (peptide)
peptide: Ac-DPDNEAYEMP-NH2
notes: as for B1
binding result [3]: no binding

Ac-SEEGYQDYEP-NH2 (peptide, UniProt P37840 129-138, looked up, synthetic 10-mer peptide) [129-138]
binding result [3]: no binding

B17: AS121-130 (peptide)
peptide: Ac-DNEAYEMPSE-NH2
notes: as for B1
% inhibition [1]: 27% | % inhibition [2]: 20%

B18: AS109-118 (peptide)
peptide: Ac-QEGILEDMPV-NH2
notes: as for B1
binding result [3]: no binding

B19: AS127-136 (peptide)
peptide: Ac-MPSEEGYQDY-NH2
notes: as for B1
binding result [3]: no binding

B20: AS113-122 (peptide)
peptide: Ac-LEDMPVDPDN-NH2
notes: as for B1
binding result [3]: no binding
